In experiment [1] the target is mouse SNX5 PX domain (residues 20–180) (mouse) (UniProt Q9D8U8). As to the kind of experiment: SPR; Biacore T100; PX5 immobilised on a CM5 chip, GST-IncE 109-132 WT or mutants flowed over; 25 °C; 20 mM Na HEPES pH 7.5, 200 mM NaCl, 0.005% Triton-X100; 1:1 steady state analysis. A general note: In SPR one partner is held on a chip, and binding of the other changes the refractive index at the surface.

For experiment [2] the target is unchanged. As to the kind of experiment: SPR; Biacore T100; PX5 immobilised on a CM5 chip, IncE 109-132 peptide flowed over (33 nM-2.7 uM); 25 °C; 20 mM Na HEPES pH 7.5, 200 mM NaCl, 0.005% Triton-X100; 1:1 fitting model.

Sequence of UniProt Q9D8U8 (Q9D8U8 20-180): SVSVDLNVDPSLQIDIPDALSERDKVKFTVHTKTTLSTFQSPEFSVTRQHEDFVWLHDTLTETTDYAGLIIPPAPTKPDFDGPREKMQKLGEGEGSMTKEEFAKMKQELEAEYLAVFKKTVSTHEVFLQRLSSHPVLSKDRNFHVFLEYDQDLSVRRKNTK

As a reminder, the Kd is the equilibrium constant for the complex coming apart. A high value points to weaker binding. With “GST-IncE^109–132 WT (domain or fragment)”, the Kd in experiment [1] stood at 390 nM.

“GST-IncE^109–132 V127A (domain or fragment)”: the Kd in experiment [1] came to 980 nM.

With IncE^109–132 peptide, the Kd in experiment [2] stood at 540 nM.

Consider “GST-IncE^109–132 K118A (domain or fragment)”, for which, in experiment [1], the Kd turned out to be 790 nM.

Source of the values: article PMC5661634.
